# Data: the RNAGym collection of RNA variant scans (doi:10.1073/pnas.2313332121)
# Variants at the floor of the assay were thinned out.
# B1: TPR 5TU (parent)
# chain: GGAUCUUCUCGAUCUAACAAAAAAGACAAAUCUGCCACAAAGCUUGAGAGCAUCUUCGGAUGCAGAGGCGGCAGCCUUCGGUGGCGCGAUAGCGCCAACGUUCUCAACUAUGACACGCAAAACGCGUGCUCCGUUGAAUGGAGUUUAUCAUG
# Variants of: B1
# Experiment: polymerase ribozyme fitness, log enrichment relative to wild type (log ratio); higher = more active; in vitro selection for triplet polymerase activity
# Outline: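 A single round of triplicate in vitro selection, including frozen incubation at −7 °C, was applied to PCR-built, transcribed mutant libraries of each subunit of a heterodimeric triplet polymerase ribozyme. Illumina sequencing of input and output libraries retained genotypes with ≥10 input reads and ≥1 read per output. Fitness is the base-2 logarithm of genotype enrichment divided by wild-type enrichment, from inverse-variance-weighted replicate averages.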
row,Variant,polymerase ribozyme fitness (log ratio)
1,G42A C75G C96G,≤ -4.2
2,A16U G46C G50C G67A G74C C118U U130A,-4.05
3,U31C C32A G80C G81A A115C C118G G133A,≤ -4.2
4,A21G C57A G81C A97G U101C U135C,-1.99
5,A3G C43U G65U G68A G71A G86U G112U G152A,≤ -4.2
6,A29U C54U G62A A113G U139G U148A,≤ -4.2
7,U7A A26G A47G A66U G71C C131U U139G,≤ -4.2
8,C132U U139G G140A,1.22
9,U31C C36G U56A G70C G94A C129G,-3
10,A3G U15G G25U A41C G83A U90A A98U C99G A113G,≤ -4.2
11,U31C U56G C123A G136C,-2.61
12,G68A U130C,-3.95
13,U56A G81A G126U U135C A138C G141C,≤ -4.2
14,C85U A113G,-1.86
15,C10G A52C G70U C85G G117U,≤ -4.2
16,C99G U134C,-0.713
17,C8U C14G U33G C51G C54U C57A U77G C87G G136U,≤ -4.2
18,A23U C27G A37U C95G A110G G140C,-3.86
19,G92C G94A,-2.95
20,A24U A40C U55A A60G C75G C96G U104G,≤ -4.2
21,C18U A20G C87G U102G,≤ -4.2

row,Variant,polymerase ribozyme fitness (log ratio)
1,C38U A52C A120U,-1.22
2,A37U C51U A97C,-2.02
3,U7G A17C A24U A52G A64G C72G C85U G88U G92U C93G A119U,≤ -4.2
4,A41U A49C C96G A113G U135C C149U,≤ -4.2
5,U6A C93U,-1.6
6,C5A G25C A41C C85U A89C A115G C132G U146C U148G,≤ -4.2
7,A21C C96U,0.207
8,A12U C18G C63G G83U U111G,≤ -4.2
9,C54U U104G,-1.21
10,C27G C75G C93A C103G U134A,≤ -4.2
11,G81U G92C C116A G133C,-3.35
12,A21U A39C U90C C95U A97U,≤ -4.2
13,C54G C75G G86U G92C G124U C125A A137C U151C,≤ -4.2
14,C27G G80A G81C,-4.11
15,U6A A106G G117C A147U,-0.278
16,A20C A22C C43U G83C,≤ -4.2
17,G46U A60U G92C U139G,≤ -4.2
18,U7G A37G C38U G59U A60U G94U C108U,≤ -4.2
19,C43G A60C G62A C96U U102G,≤ -4.2
20,A113U G117U,-2.07
21,A16G C43U C51U G80C G117A A142C,≤ -4.2

row,Variant,polymerase ribozyme fitness (log ratio)
1,C43U G46A U90C C95U A106U,≤ -4.2
2,A73G A98G U146G,-1.02
3,C27U C32A A39U C75U A91C A121C G126C,≤ -4.2
4,U4A A19C,0.332
5,G11U G42C A47C G74A C96G C105U G140A,≤ -4.2
6,C57A C72U C99A C103G G140C,≤ -4.2
7,A28U A29U G74C C79G A89C C118A A120U A122G C125G,≤ -4.2
8,U4G C27G A40U C116G A137C,≤ -4.2
9,A37G C123U,-1.8
10,A23U U61A A107U A115G,≤ -4.2
11,C85U A91C C105U,≤ -4.2
12,G84A A97U U134A,-3.23
13,C8U G74U C79U C93A G143U,≤ -4.2
14,A40C G50U C69G C116U,-3.24
15,A3U C108U,-3.59
16,G94U C95A G152A,-3.85
17,G68C A89G G94A A113U,≤ -4.2
18,C35G G94C U101C A115C,≤ -4.2
19,C96G U146C,-1.45
20,A40U G86U C93U C149U,-3.56
21,C87U C105U A107U,-3.79

row,Variant,polymerase ribozyme fitness (log ratio)
1,C14G U139G U144G,-1.38
2,C18U C32U A37C C54A C69A G70U A97U A138C C149A,≤ -4.2
3,U6G A19G C38G C96A A106U,-3.84
4,A52G A150C,-3.43
5,U31C C76U C96U G136C U144C U148C,-3.9
6,C93A A115C,-3.22
7,C54U C95A,-1.44
8,U6G A60C A73C C87A C118U,≤ -4.2
9,U6A A91C,≤ -4.2
10,G50C G86U U111G,≤ -4.2
11,A16U A26C C54A A119C G133C U135A,≤ -4.2
12,C8U A39G G86U U102C U111G U144C G152A,≤ -4.2
13,C35U A39G G84C A106G A120U G152A,≤ -4.2
14,A23U G42C G83A,≤ -4.2
15,G50C G80A C85U C87U C108U,≤ -4.2
16,C85U G94A A121C A138U,-4.08
17,C43U A47C U56A U78G C87G,≤ -4.2
18,C57A U101G,0.71
19,C57U C79A,-4.19
20,C10A A12G A17U C32A C96U A110U C116U A147C,≤ -4.2
